Substrate in this data set: CCCCCCCC/C=C\CCCCCCCC(=O)SCCNC(=O)CCNC(=O)[C@H](O)C(C)(C)COP(=O)(O)OP(=O)(O)OC[C@H]1O[C@@H](n2cnc3c(N)ncnc32)[C@H](O)[C@@H]1OP(=O)(O)O
Description: cells, lysate or membranes. It is filed as cell-based, Arabidopsis thaliana. The conditions noted are these: acyl acceptor sn-1-18:1-LPC, pH 7.2, 30 °C, labelled compound.

B1: AtLPCAT1 (Arabidopsis thaliana) (protein)
chain: MDMSSMAGSIGVSVAVLRFLLCFVATIPVSFACRIVPSRLGKHLYAAASGAFLSYLSFGFSSNLHFLVPMTIGYASMAIYRPKCGIITFFLGFAYLIGCHVFYMSGDAWKEGGIDSTGALMVLTLKVISCSMNYNDGMLKEEGLREAQKKNRLIQMPSLIEYFGYCLCCGSHFAGPVYEMKDYLEWTEGKGIWDTTEKRKKPSPYGATIRAILQAAICMALYLYLVPQYPLTRFTEPVYQEWGFLRKFSYQYMAGFTARWKYYFIWSISEASIIISGLGFSGWTDDASPKPKWDRAKNVDILGVELAKSAVQIPLVWNIQVSTWLRHYVYERLVQNGKKAGFFQLLATQTVSAVWHGLYPGYMMFFVQSALMIAGSRVIYRWQQAISPKMAMLRNIMVFINFLYTVLVLNYSAVGFMVLSLHETLTAYGSVYYIGTIIPVGLILLSYVVPAKPSRPKPRKEE
Consider B1, for which the Km is listed as 18 µM.

A word on the Km: it is the substrate concentration at which the rate is half of its maximum.

The record behind these values is publication PMC3873549, “Plant Acyl-CoA:Lysophosphatidylcholine Acyltransferases (LPCATs) Have Different Specificities in Their Forward and Reverse Reactions” (The Journal of Biological Chemistry, 2013).
